# Assay: soluble on expression in E. coli; label from the status in PepcDB or PDB records
row,Sequence,soluble on expression in E. coli
1,GPGSMDLNMRLLTRIFTYRRNHAEQGTIMSSKIAELSGRILSQQQYSQILEQRRWLQGLLKEVSLDMGAKEKEKSASPVVLPYGSIVSGTSFKDGDADYIVSFPIVSESTRQSGACVIDRERQEKFLSDIFSHIRKRNSDVELHPQRIFRARVPIVQYVRKSGQESARFDLSLSLDGLKNSLLLRQYMAGDPRLRLGVLGAKQWGREQQILNARRGWISPYALSIMYIHYMKETGRTALSFDEEAVSQRVNAIVSTAAESEGDISHVDELASILPLQEADMLLVEKDVFDFFAFYGTPGGFDFDASVVDIRSRERFSSKDQWCQLLDQLDERERWNLLGHEVILLRDPFEPHSLGRSVDFFRGEEIRERFRSAAVRKEPLSLFAFL,not soluble
2,GPGSMELSFPDKYYEVAKYFDYYVGNLEESPLLSDAQRLMFYALRQQADHGQCTTAAPSFWNSRERHKHQAWKQLGRMSTFEAMVFFVQQFEQLLTQLENSTGQPASTSGATARAGAVDWPSRLREMKSKMAPSPGNRPHRSEALASDGAHATNDILAVRRGPSPA,soluble
3,GPGSMEWSSQSALPGVEGSPGYGRLCSATSGGVGAFQQFSPATAATVGDTTSVPTEAPSSVSITVGEAMDGVALQCERRGLTNAATWLSEMSLHALPSLLATPLQACSYGGHGGNSLFSPLHRAIHLDSGVFGDHAIAGGVRSTPSAGWQRLHRVALGYFIKGEYQRCHHLILREVMRNTAVGSSCGVPLPSTTQRTWPMPAGEVPDNEGGLSLPLPEVVRGFRTTTLPPLLQFLSLYALFMDGVKAKQLSNNASQGGGAESSSMGRGGQQRALHPHARVLRAYLLEAMRNPVNMLNLPSSNNSDPEPQHGDGGDDGAALHVAVGGALPGAHHTSSAKRPWTTSSAVWLASRAVSAATTTGTAAVMTAGASASRPRGNKAGQLHARYSLPLHCCLVCLLERLSSRLSSRESSGSARRRIGSGTYVGLVAYRSVPVVAHGCSAAGTSHAPGKCDVSAGGGECQPTTAVRLGRPRVPRES,not soluble
4,GPGSMFRKAESAHAAINATHLTQPTPNCGTVLHVSIAMHDEGLDDHPNDRLFIRGLPQWATKEHLRQMFAPYGVITECAVLMNPLGQCKGSGFVQFSSQQEATAAIKARDSISMDNWPNQLEVKYSESAEVRQMRQERNRNRQRHWLPSPQYRGGNTPSSLPSPYPGFSPPLSLIPSPQAFPVMNAMPFSMVYSPTPATTGAP,soluble
5,GPGSMIIWAVGTTNKAKLDSVDIAVRMCFPSYQHDVRPVAVLSIVRAQPISAEESQQGAQHRAHEALSLVPEAHYGVGLEGGLEKISDRWFECGWMYVIERSTGRCGIGSSARFEMSQKLMSKILDEGKELAEVMDEMTGETDVRSGQGAMGVLTAGYLNRAESYSHGLIFALAPFLSDHKYWD,not soluble
6,GPGSMKAQPKQIGCYLVTEASREESFVVLEGHEVDNPNRHVRAKALLEDRAAPENISVRIGIEENLLGRSVAYPRARCRALEQEEGKSVRASNDSLAELWRARPL,soluble
7,GPGSMKGCCRLLSAAEAASLIRRIGPFAVHRGEATGVIEILSGDPNHPVKKLNLLGLAYAAALTELSELLSEELNAEARVAIFAARDGCSFSAGIDLKELSGMRPPSGSGAAATAAASSGPKAPAMLLQHQHRVVRTFQDGISSLARCRIPIIAAIDGHCIGGATSVASSCDVRYTTTRATFSVKEAAVGLAADIGVLQRLPAIIGEGRTRELAFTCRDFSGVEAKAMGFVEEVCADYPALLAHARKRAAQIAANSPLGVQNTKLILNWERERAAQTSLEYQAAINAFSLHCSDIPEAARAFAERREPVFTDYMVNPRGGPPHSRQS,not soluble
8,GPGSMLRPTCPVAKNLTSFATKGTMRGGIPRIYYTWMKPGSATRRRFEKMRNPFVNLETGTSLYFRDTRDSAEAVAHAADSKGLKGMDNGVDLYNEYKIVPDLYPEGFQWKHKLNTEYNQWRSNTWLTPELIPQEHRGRFLCNFQLNIVAYDMRVVKFSPKDHRQWIYCVLYVGTGKGIAGFGRAVAPSTQEARNEAIREAFSNIIAVDLEQEGPMYPVRINADGARVLLYPARRIIANFRVADILCAFGFQNAGCKINLKASNNPKAPTHTVEGVFEAVKALRSVSEIAASRGKVPHSLVYNIYPYLEEMRRRKGMMAMHPPGKDGIFMPNRVVDNRMPDHLKKGYYDDVYWKDFFAGSKEQLNEPKMGLRGDELRAQLEESQGRTAKRSNRRTLDDVLRRLGKTSRDLGALQVVNPRLDAKLPTHMKRNYLLH,not soluble
9,GPGSMNQLISVINELHDAFAGVKMNIKLNLPQIAVVGSQSCGKSSVLESIVGKDFLPRGSGIVTRCPLVLQLVQLPKSNEEEWGEFLHIPNKKFYDFNEIQNEITRRTIEIAGPSAITDKPINLKVYSSAVLNLTLVDLPGLVMNAVGDQPKDIDRQIKDMVTRYVLPKNTIILAISPANTDLATSQSLRLAKQLDPEGVRTVGVLTKIDLMDKGTDCFDVLQNRVLQLRHGFVGVVCRSQQDINDCKSMEDARRSEYEFFANSPIYSPIAEEAGTAYLSKKLNFLLLEHIKAVIPDLKHHVDQLMEATKKQMEKLGMFEQDITEPTAQLLYLIKVFSDALNQTIDGGITDATKELLGGARLDYIFHECFATYVTSLSATKDLTDDYIRINTRNMAGMHATLFPSDQVFVALSKQQINRLEEPCIKCVTFVYEELGKIVEICAGKVDRYPNLKEAVIAICKKMLFDYRLPTSTHVRTIIKAERGFINVKHPMMDELAQRALSNIYGTTSGESSSPPRNSSGPNASAAGGTQADPKQSGKDIKKDDKRGVRDEKRPEKPKEQGNTDSAISPGNKSDMNDVPSRIMLGKTMTMHEQFMNSAIREMVEGYFSIVKGNVADQVPKAITLLMITRLREEVYARLVSELYSDKTAKALLSEPPGIATQRKAAKEMLEALTKAQNALNSVRDYQLTKEPASSMQAGT,soluble
10,GPGSMPAPSLATRHFTFTHEVPADDVFELEENAPRRVPIACVTLQMVSFNRRCFWFHIAMTREGFSAPPPPFGACAVSFSGVSGDSAATTLVDDTALPQLGFKEAQHEVGVGAPNPQAVFADSLARRLSRRLEREFTSGVAVYVACGIIGENQSDLLGTPAGYGSEVTRRFGAEVFKHAMDLICEEGLGKATAA,not soluble
11,GPGSMPPKRPLYEVLGVSQDAAEEEISRVYRRMALQYHPDRNPNGEAKFKDIANAYSVLGDSEKRRVYDATGVIPGGAAETDNEATMAERSAEMKERVQVFYATYAGSPEETEDVISCYKKCKGNFRRMAREELLFDNKKQGEIQRLMELVRSLVESGRLNPTEAWKVTNTAAVLKQIERSLTRERKEAKDALDAMGLSAKEGEGGLHALQALMKRDQEAEWSKMMSNLESKYVKPKSATKGVEQNGKRNKRKAEATKTVSAPPQKKSRR,soluble
12,GPGSMPYIRMAYEKAISDVPADTLDKVKAVLSALEEVLSVRTFLVGERLTIADVAVAFSIHWVYRCNRKHGQTLYKEYRAVYRHYNTVMRHPKIHAMMRKEGAAIGPLRS,not soluble
13,GPGSMQKQHAPGRGLVLHSHKVKGQQQERNDSLVQCAQHPPLQKRVNPHPHSHSSKPIPNIFVVITGLVVNPRTGSFHDFRSPCFPPPRGGGKGRNAWGNRNGEKVEAALAALQIGIFGDQHHIAGKEACQVDKKPSCSFFLTWPHILPTRFQRKKKRKNY,not soluble
14,GPGSMQQPTAQEEQYVNVPVPLTGEEKGWQEVAPNRYIRYEQFGGSDAEMNFIVNLFTAELTEPYSSFTYQYFVFGWPDLCITAFGVESETKPDNSVVGEKVGAVVSRVTRKGAGMPLRGYVAMFAVVPKFRGYRLGSRLVSLTVELMRAKGCDEVYLETPTSNVRALGLYLNLGFAKTKYLPRYYLDHSDAVRLKLWLKDAIPKSVPETASTAGVEKA,soluble
15,GPGSMQSNAPFDPEREALRNEAIKKTVERNVTQARLKKVNDDVKLQQRELDKVEDQVNALLSIGHYVGEVLKRVDEERFIVKSISGARHLVGYRKSIKPEKLKFGARVALEITTFTIVKVLPREVDPQVYSMQYMSSDKDVSFQDIGGLQPQMRQMREVIELPLTNPELFVRVGIAPPKGVLLYGPPGTGKTLLAKAIAANVDAAFLKIVASSIVDKYIGESARVIREMFAYAREHEPCIIFIDEVDAIGSKRIEGSSSDREIQRTLMELLNQMDGFDKLGKVKVIMATNRPDTLDAALMRPGRLDRKIEIPLPNEAGRLDVLRIHSAKITKKGDIDFESVVKLSEGFNGADLRNVCTEAGMFAIRAGRDYVENSDFNKAVRKVADMKRLEGTAHQYSDQ,not soluble
16,GPGSMRARSLLRQQASAATLQPLRSVVAIGLRQEFDPHWPLPLPPPLPMNKQKHTLVLDIDETLIHTYAMGLHDDSKDHTRDPALQGVSLIDYNVLLRPHLKEFLEEVNQLFEVVFWTAGTASYCCAVLDALEQQVMQLPRSFYSYVELAKESRKMKSSTSHTNFYALSRTQTLEQQGYMKYLPMLGRKMSSVVMLDDNVRSFPLTPRNGIRIDAFDPDDHVLQRYIFALRRVQKEKPHEMEAALVQCLQQGQQE,not soluble
17,GPGSMRFRRVLAPLAASPHRWKTQRSPRGEETMGEGGAIEPDTSEAWVRNYVARAVREGRQTKESAEYFESIMNDQVEFRQYIQEARRLLNNQDPRTLTKYQRGHFAERLSRQMSGVAAERLMRAHAEESNARRHTQDGTPTGENYWFEAGNTLASPSVPGFVKDEVMREMREDRKKTSAAFEESEELQAMADKDEAFAEHLRRQRQHLFRSNDDVN,not soluble
18,GPGSMRKFCHFMANCWNSARSHATYGAVPLTHSQVTSVYATDGGKVDELGLLELVEERIFSWKLNKWEMRIPPNLPNDQKELIRQEQENLKQILSGWRKCFGALNADILQISSLTGVPKEVVREKNRTWLQEEVAKLRWMGEVNKAALLRDAFMRLEAFGSRDFMFMERLCCIYGLARQGTFDEAFTNYITEDPVTNDIFVDERNPFKELVAHIVRNYSQIDIIYDFLGFNYSEGYRSSLRRYMEYLQCKTAENVRASGRLVTGDKGEHNILFDYCVSRESLVSGDSCQGIIDFLYINGNDVTLIIIASDNPWLRNRQLPHRRQMEGIARRVCFVLGIPPSEVRIRNLLLPPTYLDKGSIVRLNDIVFRLSNEQSNLLIPWLTNYNKELDPKDVDYTALAKTTNEEEWLTL,not soluble
19,GPGSMRYFVVAHEFQAEEDVELSVFKGEILCATEGVAQDGWIKVEATTDARRRGFVPMSYLREISAAEASTSMSAPASSAPPLTGESTSPMRTPQRAGGESSARAALANTTVSTSLDLGNCSGVVAKGFSPSLQPMRSPETTAVHAAPASSSIHLTPAQQAAGPVSRHLLENPNAVVDAFMKNEVYFNQLMQRRASALAQMQSGLEEAMTEVAACKDRSAVLTRKLHDLDGVVERERQRWMDRVEEEKVHVSRSIPYSAPLAVPVSSGTTPLRSPIIGPHSGVGRSVLDDDSPRQLRA,soluble
20,GPGSMSHNVRPSRYAVSQSKARIFVGQLEPYVTEQDLYPVFSCYGKILHLNIVRHSTTVTPNEERRIPTAFVWYETTTEADAAIAALHNVFTFSSPDEEENKVRYIQVSYADKSPECTPWGRWQKTQAEIMRRTNPSGTGTGSNMPGQYSHITGGGPSTYSSSALNNDGGFTVSATGPAIRSSQSSGDISSMRYPRNPARGLRSMAPHIDHPEVQYYSSYDNLYNLGNRNQLYSMGGAANSMMGYTKHRGMPPHESTSSGDLGRGSTSSFWNMSEEVKKNTAANPNRFRHTARYTAPEPDEDLIMAAPTFTVTSGP,not soluble
21,GPGSMSKQKKEVVINLDEVDEQTGYKSAELFVWLKFDETYLQKPEDDREADVDAWVDAFCEQMEEEGMNYDRNFVRSVCVLGIYAGARDEFQQRMGSGKAVYPNGDRYDGEFFEGKKHGTGRYCFVSRGKSECDRIVEKEMQKLGGAVPDEQFITNVAEKYKISRQIVSWIIEYGVYPCYHGDYVRGVRTGQGLMKNKDGTVYKGDFLANKRHGQGMFYYLNGDIFSGTWRNGLKHGYGTYHFAGGSEYRGSWVDGVFTQGQWIFPDGTYYEGLFNKKNRPCDDAASMHFPSIKMAQTGVFRRGVWAPSSALQVCEETPVDGMSWID,soluble
